Target: recombinant human mitochondrial Hsp60 (human), P10809
Experiment: native gel or EMSA + SEC
Settings: remark: other sources report otherwise

B1: recombinant human mitochondrial Hsp60, P10809 27-573 (natural protein)
chain: AKDVKFGADARALMLQGVDLLADAVAVTMGPKGRTVIIEQSWGSPKVTKDGVTVAKSIDLKDKYKNIGAKLVQDVANNTNEEAGDGTTTATVLARSIAKEGFEKISKGANPVEIRRGVMLAVDAVIAELKKQSKPVTTPEEIAQVATISANGDKEIGNIISDAMKKVGRKGVITVKDGKTLNDELEIIEGMKFDRGYISPYFINTSKGQKCEFQDAYVLLSEKKISSIQSIVPALEIANAHRKPLVIIAEDVDGEALSTLVLNRLKVGLQVVAVKAPGFGDNRKNQLKDMAIATGGAVFGEEGLTLNLEDVQPHDLGKVGEVIVTKDDAMLLKGKGDKAQIEKRIQEIIEQLDVTTSEYEKEKLNERLAKLSDGVAVLKVGGTSDVEVNEKKDRVTDALNATRAAVEEGIVLGGGCALLRCIPALDSLTPANEDQKIGIEIIKRTLKIPAMTIAKNAGVEGSLIVEKIMQSSSEVGYDAMAGDFVNMVEKGIIDPTKVVRTALLDAAGVASLLTTAEVVVTEIPKEEKDPGMGAMGGMGGGMGGGMF
  stoichiometry N: 7
